{
  "source": "patent US10869932B2",
  "about": "“Compositions and methods for modifying the surface of cells and methods of use” (UNIVERSITY OF UTAH RESEARCH FOUNDATION, priority 2014, dated 2020)",
  "target": "SDF-1 (Homo sapiens, UniProt P48061)",
  "sequence (P48061 22-93, species assumed)": "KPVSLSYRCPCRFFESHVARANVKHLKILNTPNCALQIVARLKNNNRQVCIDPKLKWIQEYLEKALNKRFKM",
  "experiment": "SDF-1 binding to rCXCR4 on the surface of MSCs",
  "format": "cell-based",
  "conditions": "FITC-SDF-1, 30 minutes at 4° C.",
  "procedure": "FITC-labeled rSDF-1 (FITC-SDF-1) and rhodamine-labeled rCXCR4 (Rho-CXCR4) were prepared according to the manufacturer's protocol. MSCs were then modified with DMPE-PEG-Rho-CXCR4 or DMPE-PEG-CXCR4. Modified MSCs and non-modified MSCs were incubated with FITC-SDF-1 for 30 minutes of incubation at 4° C. under gentle shaking. […] In order to avoid unknown effects of rhodamine on the interaction between SDF-1 and CXCR4, FITC-SDF-1 was added to MSCs modified with DMPE-PEG-CXCR4. […] Weak SDF-1 intensity was detected on the surface of the non-modified MSCs (see FIG. 12; Control+FITC-SDF-1).\nAdditional evidence of SDF-1 binding to CXCR4 with CXCR4 detection on the surface of the MSC was achieved by the same methods as employed in the previous experiment. MSCs were modified with DMPE-PEG-CXCR4 and the modified MSCs were incubated with FITC-SDF-1.",
  "data": [
    {"substance": "DMPE-PEG-Rho-CXCR4: DMPE-PEG conjugated with rhodamine-labeled rCXCR4", "values": [
      {"measurement": "SDF-1 binding on the surface of modified MSCs (confocal)", "value": "FITC-SDF-1 was co-localized with CXCR4"}
    ]}
  ]
}
